Test results taken from patent publication US7112317.

How the values were obtained:
human endoglin (human) [1] = molecular target: human endoglin (human) (UniProt P17813); experiment: competitive binding inhibition on HUVEC by FACS; unlabelled TEC-4 against biotinylated TEC-11 as competitor, ratio 1:1
human endoglin (human) [2] = molecular target: human endoglin (human) (UniProt P17813); experiment: FACS, indirect immunofluorescence on HUVEC, antibody at 10 µg/ml, MTSA control subtracted
human endoglin (human) [3] = molecular target: human endoglin (human) (UniProt P17813); experiment: cell-based or functional assay
human endoglin (human) [4] = molecular target: human endoglin (human) (UniProt P17813); experiment: FACS, postconfluent HUVEC stained with 20 µg/ml TEC-11, sorted endoglin^lo fraction; mean (SD) of 2 studies
human endoglin (human) [5] = molecular target: human endoglin (human) (UniProt P17813); experiment: FACS, postconfluent HUVEC stained with 20 µg/ml TEC-11, sorted endoglin^hi fraction; mean (SD) of 2 studies

| Substance | percent blocking (human endoglin (human) [1]) [%] | specific mean fluorescence intensity (MFI) (human endoglin (human) [2]) | complement fixation: lysis of HUVEC with guinea-pig complement (trypan blue) (% lysis at 100 µg/ml) (human endoglin (human) [3]) | MFI (human endoglin (human) [4]) | MFI (human endoglin (human) [5]) | complement fixation relative to TEC-4 (human endoglin (human) [3]) [fold] | complement fixation: lysis of HUVEC with guinea-pig complement (trypan blue) (% lysis at 1 µg/ml) (human endoglin (human) [3]) |
| --- | --- | --- | --- | --- | --- | --- | --- |
| TEC-4 (antibody) | 11 | 200 | 48 | – | – | – | – |
| TEC-11 (antibody) | – | 200 | – | 61.6 | 270 | 100 | > 50 |
